# According to US8389468B2, “Approach to the treatment of compartment syndrome” (Lantmannen AS-Faktor AB, priority 2006, dated 2013):
# B1: AF: antisecretory factor; antisecretory proteins and peptides; in FIG. 2b probably AF-16 (protein, UniProt P55036 1-377, looked up)
# 26S proteasome non-ATPase …: MVLESTMVCVDNSEYMRNGDFLPTRLQAQQDAVNIVCHSKTRSNPENNVGLITLANDCEVLTTLTPDTGRILSKLHTVQPKGKITFCTGIRVAHLALKHRQGKNHKMRIIAFVGSPVEDNEKDLVKLAKRLKKEKVNVDIINFGEEEVNTEKLTAFVNTLNGKDGTGSHLVTVPPGPSLADALISSPILAGEGGAMLGLGASDFEFGVDPSADPELALALRVSMEEQRQRQEEEARRAAAASAAEAGIATTGTEDSDDALLKMTISQQEFGRTGLPDLSSMTEEEQIAYAMQMSLQGAEFGQAESADIDASSAMDTSEPAKEEDDYDVMQDPEFLQSVLENLPGVDPNNEAIRNAMGSLASQATKDGKKDKKEEDKK
# Tested on: HSV-1 infected rats
# Assay: Intracranial pressure (ICP) and neurological symptoms in HSV-1 infected rats, fibre optic pressure sensor
# Assay type: in vivo, rat
# Conditions: HSV-1 infected rat treated twice daily, day 5
# Protocol: Adult rats were infected by having a solution of the Herpes Simplex virus type 1 (HSV-1; strain 2762, batch 041028; 1.7×10^7 PFU/mL; 25 pL) instilled in their right nostril. One group of animals (n=6) received 10 min after the infection 25 pL (10 pg) of AF-16 in their right nostril, and had thereafter the same dose of AF-16 instilled twice daily, every morning at 8 AM and every night at 6 PM, until the experiment was terminated on day 6. Additional HSV-1 infected rats (n=6) received in the nose at the same time intervals 25 pL of the vehicle, phosphate buffered saline (PBS). On day 6, the animals were anaesthetized, a surgical incision made through the skin on the head, and the skull bone freed from periostium and connective tissue. A hole with a diameter of about 1 mm was drilled through the right parietal bone and a miniature pressure sensor inserted 3-5 mm into the brain or into the lateral ventricle. A fibre optic pressure measure system (Samba System 3200 & Samba Preclin 420 sensor; Samba Sensors AB, V Frolunda, Sweden) with a very small diameter, ve. 0.4 mm, was used. […] HSV-1 infected rats treated with just the vehicle were measured to have as high pressures as up to 30-45 mm Hg (FIG. 2a), considerably affect the animals as reflected by symptoms of neurological dysfunction of increasing severity. In contrast, HSV-1 infected rats treated from the time of infection with AF-16 twice daily had almost normal ICP, 8-14 mm Hg (FIG. 2 b).
# Additional HSV-1 infected animals with distinctly overt symptoms were as well treated with 10 or 25 pg AF-16 intranasally, starting on day 5, 6 or 7, i.e. after having had the vehicle during the previous days. […] Thus, non of the acutely AF-16 treated rats had any persistent signs of deleterious ICP and thus no CS developed. […] That is seen in the mentioned figure (FIG. 5 a) as there is no red staining of the right half on the figure. However, treatment with 10 or 25 pg AF-16 intranasally turned the picture in HSV-1 infected rats as in the normal, non-infected ones. […] Thereby the outflow of CSF was restored and the ICP turned normal.
molecule,measurement,value
B1,ICP (FIG. 2b),almost turned the ICP back to normal levels
